This is an account of results in patent publication US20250257126A1 (CAMBRIDGE ENTERPRISE, published 2025).

Where a chain is given by its changes, count along the chain named.

Sequences and labels used below:
B1: hybridoma clone 12 (antibody, V domains shown)
VH: EVQLQQSGPELVKPGASVKISCKASGYTFTDYYMNWVKQSHGKSLEWIGDINPNNGGTIYNQKFKGKATLTVDKSSSTAYMELRSLTSEDSAVYYCASGYLFDYWGPGTTLTVSS
VL: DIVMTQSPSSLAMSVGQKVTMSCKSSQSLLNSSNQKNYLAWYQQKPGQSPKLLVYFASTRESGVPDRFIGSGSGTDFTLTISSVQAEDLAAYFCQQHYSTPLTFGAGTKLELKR
notes: Murine antibody; also called antibody 12
B2: α-LGR5 clone 1 (antibody, mouse IgG1, kappa, V domains shown)
VH: QVQLQQPGAELVKPGASVKLSCKASGYTFTSYWMQWVKQRPGQGLEWIGEIDPSDYYTNYNQKFKGKATLTVDTSSSTAYMQLSSLTSEDSAVYYCARSLSGYVDYWGQGTTLTVSS
VL: DIQMTQSTSSLSASLGDRVTINCRASQDIRNRLNWYQQKPDGTVKLLISYRSRLQSGVPSRFSGSGSGTEYSLTISNLEQEDIATYFCQQGNTLPPTFGGGTKLEVRR
notes: Murine monoclonal antibody from hybridoma; also called hybridoma clone 1; antibody 1
B3: α-LGR5 clone 4 (antibody, mouse IgG2b, kappa, V domains shown)
VH: B2 VH with S31D, Y56S, K65Q, M81I, E89D, Y103S
VL: B2 VL with S7T, N22S, R30S, E70D, S76T
notes: Murine monoclonal antibody from hybridoma; also called hybridoma clone 4; antibody 4
B4: α-LGR5 clone 3 (antibody, mouse IgG1, kappa, V domains shown)
VH: B2 VH with Y56S, T58S
VL: B2 VL with S7T, N22S, R30S, E70D, Q80E
notes: Murine monoclonal antibody from hybridoma; also called hybridoma clone 3; antibody 3

The first test addresses T1, human LGR4 transgene (human, UniProt Q9BXB1 25-951).
T1 construct: whole, on cells; Overexpressed in HEK293T cells with N-terminal HA tag, V2 receptor tail and eGFP; also tested as lysate; also called hLGR4; LGR4-eGFP
The experiment in a line: western blot of lysates of HEK293T cells expressing the LGR transgenes.
Consider B1, for which the binding result is “no binding”.

B2: the binding result was “no binding”.

Turning to B3, the binding result was “no binding”.

With B4, the binding result was “no binding”.

The next test has as its target T2, murine LGR4 transgene (mouse, UniProt A2ARI4 25-951).
T2 construct: whole, on cells; Overexpressed in HEK293T cells with N-terminal HA tag, V2 receptor tail and eGFP; also tested as lysate; also called mLGR4
Described as above.
With B1, the binding result is reported as “no binding”.

In the case of B2, the binding result is “no binding”.

With B3, the binding result was “no binding”.

Take B4: the binding result is on record as “no binding”.

In a further test the target is T3, human LGR6 transgene (human, UniProt Q9HBX8 25-967).
T3 construct: whole, on cells; Overexpressed in HEK293T cells with N-terminal HA tag, V2 receptor tail and eGFP; also tested as lysate; also called hLGR6; LGR6-eGFP
T3 sequence (looked up): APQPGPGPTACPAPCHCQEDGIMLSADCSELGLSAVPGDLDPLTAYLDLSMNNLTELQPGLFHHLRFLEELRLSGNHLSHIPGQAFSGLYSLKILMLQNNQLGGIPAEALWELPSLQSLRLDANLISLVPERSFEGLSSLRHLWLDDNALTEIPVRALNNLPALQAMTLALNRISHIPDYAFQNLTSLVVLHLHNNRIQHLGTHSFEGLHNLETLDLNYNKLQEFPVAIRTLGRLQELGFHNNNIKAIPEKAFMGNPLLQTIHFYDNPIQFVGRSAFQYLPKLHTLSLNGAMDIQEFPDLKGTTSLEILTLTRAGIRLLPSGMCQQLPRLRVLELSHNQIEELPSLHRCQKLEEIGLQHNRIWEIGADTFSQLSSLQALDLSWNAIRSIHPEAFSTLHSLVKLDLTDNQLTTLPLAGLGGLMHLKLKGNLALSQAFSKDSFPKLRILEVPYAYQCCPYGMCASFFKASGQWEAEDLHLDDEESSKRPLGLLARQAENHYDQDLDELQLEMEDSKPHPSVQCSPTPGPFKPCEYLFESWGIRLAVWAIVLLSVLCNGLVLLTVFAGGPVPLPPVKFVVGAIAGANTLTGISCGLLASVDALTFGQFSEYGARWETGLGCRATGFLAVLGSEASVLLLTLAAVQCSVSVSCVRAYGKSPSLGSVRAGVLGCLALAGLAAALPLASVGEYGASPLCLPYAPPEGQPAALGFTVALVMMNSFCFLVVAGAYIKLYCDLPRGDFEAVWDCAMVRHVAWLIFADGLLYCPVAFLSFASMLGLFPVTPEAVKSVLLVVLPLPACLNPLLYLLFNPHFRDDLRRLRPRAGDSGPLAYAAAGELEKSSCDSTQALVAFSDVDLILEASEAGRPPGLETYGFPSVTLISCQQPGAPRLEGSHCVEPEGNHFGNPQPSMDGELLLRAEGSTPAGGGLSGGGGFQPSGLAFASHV
The description is as above.
Consider B1, for which the binding result is listed as “no binding”.

With B2, the binding result was “no binding”.

On to B3, for which the binding result was “no binding”.

As for B4, the binding result was “no binding”.

The next test concerns the target T4, murine LGR6 transgene (mouse, UniProt Q3UVD5 23-967).
T4 construct: whole, on cells; also called mLGR6
T4 sequence (looked up): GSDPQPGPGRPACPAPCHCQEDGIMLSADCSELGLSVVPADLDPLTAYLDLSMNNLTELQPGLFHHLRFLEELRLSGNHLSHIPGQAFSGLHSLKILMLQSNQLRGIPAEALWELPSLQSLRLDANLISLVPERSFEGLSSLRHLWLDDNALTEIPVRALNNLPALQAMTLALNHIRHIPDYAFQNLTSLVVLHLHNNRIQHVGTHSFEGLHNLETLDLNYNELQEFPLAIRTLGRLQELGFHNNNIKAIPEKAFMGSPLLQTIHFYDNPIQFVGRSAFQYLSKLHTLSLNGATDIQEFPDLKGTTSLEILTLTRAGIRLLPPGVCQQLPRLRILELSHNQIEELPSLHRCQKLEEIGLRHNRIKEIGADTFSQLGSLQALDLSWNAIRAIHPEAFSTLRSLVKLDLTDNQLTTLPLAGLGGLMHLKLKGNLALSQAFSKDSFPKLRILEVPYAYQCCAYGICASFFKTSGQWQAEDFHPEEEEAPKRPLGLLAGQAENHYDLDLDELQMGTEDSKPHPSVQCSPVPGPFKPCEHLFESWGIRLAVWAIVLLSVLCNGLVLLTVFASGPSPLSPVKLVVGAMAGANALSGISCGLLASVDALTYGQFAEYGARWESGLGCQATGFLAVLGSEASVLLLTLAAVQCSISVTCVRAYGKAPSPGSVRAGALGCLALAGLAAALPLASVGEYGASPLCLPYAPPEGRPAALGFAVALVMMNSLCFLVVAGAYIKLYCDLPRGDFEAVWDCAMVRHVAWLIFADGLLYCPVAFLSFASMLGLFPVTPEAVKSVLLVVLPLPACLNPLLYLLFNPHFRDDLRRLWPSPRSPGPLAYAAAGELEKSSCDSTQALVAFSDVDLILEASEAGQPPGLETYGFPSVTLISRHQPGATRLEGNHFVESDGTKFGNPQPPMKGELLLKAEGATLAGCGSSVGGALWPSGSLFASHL
The test is described as above.
As to B1, the binding result is on record as “no binding”.

On to B2, for which the binding result is given as “no binding”.

As to B3, the binding result is reported as “no binding”.

Regarding B4, the binding result was “no binding”.

For a further test, the target named is T5, RAD-displayed Fragment 1A of human LGR5 (human).
T5 construct: also called Frag1A
T5 sequence (O75473 22-37, looked up): GSSPRSGVLLRGCPTH
Description: bio-layer interferometry (Octet), captured RAD-displayed fragment, 10 µM Fragment 1 peptide included. In general terms: In BLI a coated tip is dipped into the sample, and binding shifts an interference pattern.
Broadly, the Kd is the equilibrium constant for the complex coming apart. Read a high Kd as lower affinity. Molecule B2 had a Kd of 0.76 nM. This counts as sub-nanomolar.

B3 came in with an equilibrium dissociation constant (Kd) of 1.4 nM. Against the preceding molecule, the Kd is about 1.8-fold higher.

As to B4, the equilibrium dissociation constant (Kd) stood at 1 nM. The Kd values of the last two molecules are within 1.5-fold of each other.
